system: c-Src; assay: phosphorylation enrichment, bacterial display (enrichment ratio); higher = better substrate or ligand; peptides without Tyr show the background
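Throughout, for SH2 binding enrichment of the phosphorylated peptide, bacterial display: peptide library displayed on the E. coli surface as eCPX fusions, selected cells deep-sequenced, score is each peptide's frequency after selection divided by its frequency in the input.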
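Throughout, for phosphorylation enrichment, bacterial display: 11-residue human phosphosite peptides and single-mutation variants displayed on the E. coli surface, counted by deep sequencing, each peptide's frequency after selection divided by its frequency in the unselected input library; frequency after pTyr selection over input frequency; kinase dosed for 20-30% of maximal phosphorylation in three min.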

| Sequence | phosphorylation enrichment |
| --- | --- |
| KVNKIYFPDFI [LIG3_Y767_YF] | 0.478 |
| LLILEYAKYGS [RET_Y806_V804L] | 0.764 |
| AAVDTVCRHNY [HLA-DRB1_Y107_Y107V] | 0.473 |
| SSYSGYIMMPN [LEF1_Y114] | 0.684 |
| LYNQDYPIHCV [GATM_Y227_S231C] | 0.558 |
| SYCYRYRCAAW [SUMF1_Y344_R349W] | 0.471 |
| LRRREYQRQDF [PRKRIP1_Y90_YF] | 0.977 |
| PSQRHYVYYYS [PTEN_Y174_R173H] | 4.77 |
| IETGKYEILTE | 0.495 |
| RFLRGYRQDAY [HLA-A_Y137] | 1.14 |
| VNFDYYTVNLG [GFPT1_Y367_D366Y] | 4.7 |
| LTMAPYSSVSV [FAM81A_Y24_L29V] | 1.07 |
| LTYHMYADPNF [SOS1_Y618] | 8.75 |
| SFSGEYGGGGG [ZG16_Y30_YF] | 0.423 |
| SDVCMYRKNTY [SYNE2_Y570_I574T] | 0.377 |
| VIKDKYPKARY [APTX_Y209] | 0.454 |
| FKGKKYKPLDL [RPL35_Y78_YF] | 0.533 |

| Sequence | phosphorylation enrichment |
| --- | --- |
| CTTIHYNYMWN [TP53_Y234_C238W] | 0.496 |
| VTAALYGCLFE [BTD_Y536_R538C_YF] | 4.03 |
| KLIMECLPFGS [JAK2_Y931_Y931C_YF] | 0.611 |
| IMNLLYHVVGW [GBA_Y412_T408M] | 5.2 |
| GRIHSYRGHLW [VHL_Y112_R107G] | 0.347 |
| PLFRKYWPNHI [GREB1L_Y1560_YF] | 0.491 |
| QMVGMYASFFM [AVPR2_Y124_S127F_YF] | 8.13 |
| ANAFIYVVQLP [L1CAM_Y420_YF] | 0.678 |
| YGSGNYNVFGN [HNRNPA2B1_Y300_D302V] | 0.653 |
| FGPPQYNIQFS [ERBB2IP_Y977_YF] | 0.395 |
| SPPPAYTPMSG [ERBB4_Y1056] | 0.388 |
| FDAHIYEGCVI [PRKCD_Y64_R67C] | 3.34 |
| SGIYQYNIAKF [FOXL2_Y83_I84N] | 3.79 |
| TGQERYRAITS [RAB11B_Y73_A68T] | 0.344 |
| TRSYDYTEGGD [FGF7_Y58_M59T] | 0.375 |
| LVMFIYVIFGM [SCN1A_Y1684_A1685V] | 0.275 |

target: Grb2 SH2 (UniProt P62993); assay: SH2 binding enrichment of the phosphorylated peptide, bacterial display (enrichment ratio); higher = better substrate or ligand; peptides without Tyr show the background

| Sequence | SH2 binding enrichment |
| --- | --- |
| KVNKIYFPDFI [LIG3_Y767_YF] | 0.946 |
| SSYSGYIMMPN [LEF1_Y114] | 0.905 |
| LYNQDYPIHCV [GATM_Y227_S231C] | 0.902 |
| IETGKYEILTE | 0.746 |
| RFLRGYRQDAY [HLA-A_Y137] | 1.1 |
| VNFDYYTVNLG [GFPT1_Y367_D366Y] | 1.04 |
| LTYHMYADPNF [SOS1_Y618] | 0.955 |
| SFSGEYGGGGG [ZG16_Y30_YF] | 0.663 |
| VIKDKYPKARY [APTX_Y209] | 1.31 |
| FKGKKYKPLDL [RPL35_Y78_YF] | 0.849 |
| CTTIHYNYMWN [TP53_Y234_C238W] | 1.11 |
| IMNLLYHVVGW [GBA_Y412_T408M] | 1.61 |
| GRIHSYRGHLW [VHL_Y112_R107G] | 1.85 |
| QMVGMYASFFM [AVPR2_Y124_S127F_YF] | 0.642 |
| FGPPQYNIQFS [ERBB2IP_Y977_YF] | 0.907 |
| SPPPAYTPMSG [ERBB4_Y1056] | 0.846 |
| FDAHIYEGCVI [PRKCD_Y64_R67C] | 0.713 |
| SGIYQYNIAKF [FOXL2_Y83_I84N] | 0.976 |
| TGQERYRAITS [RAB11B_Y73_A68T] | 0.836 |
| LVMFIYVIFGM [SCN1A_Y1684_A1685V] | 2.05 |

Continued, values first:

| SH2 binding enrichment | Sequence |
| --- | --- |
| 1.37 | LLILEYAKYGS [RET_Y806_V804L] |
| 0.788 | AAVDTVCRHNY [HLA-DRB1_Y107_Y107V] |
| 1.6 | SYCYRYRCAAW [SUMF1_Y344_R349W] |
| 0.671 | LRRREYQRQDF [PRKRIP1_Y90_YF] |
| 1.2 | PSQRHYVYYYS [PTEN_Y174_R173H] |
| 0.783 | LTMAPYSSVSV [FAM81A_Y24_L29V] |
| 0.796 | SDVCMYRKNTY [SYNE2_Y570_I574T] |
| 0.85 | VTAALYGCLFE [BTD_Y536_R538C_YF] |
| 0.706 | KLIMECLPFGS [JAK2_Y931_Y931C_YF] |
| 0.855 | PLFRKYWPNHI [GREB1L_Y1560_YF] |
| 0.85 | ANAFIYVVQLP [L1CAM_Y420_YF] |
| 0.813 | YGSGNYNVFGN [HNRNPA2B1_Y300_D302V] |
| 0.706 | TRSYDYTEGGD [FGF7_Y58_M59T] |

target: SHP2-C SH2; assay: as above

| Sequence | SH2 binding enrichment |
| --- | --- |
| KVNKIYFPDFI [LIG3_Y767_YF] | 0.844 |
| SSYSGYIMMPN [LEF1_Y114] | 1 |
| LYNQDYPIHCV [GATM_Y227_S231C] | 0.689 |
| IETGKYEILTE | 0.609 |
| RFLRGYRQDAY [HLA-A_Y137] | 0.556 |
| VNFDYYTVNLG [GFPT1_Y367_D366Y] | 1.46 |
| LTYHMYADPNF [SOS1_Y618] | 1.28 |
| SFSGEYGGGGG [ZG16_Y30_YF] | 0.543 |
| VIKDKYPKARY [APTX_Y209] | 1.05 |
| FKGKKYKPLDL [RPL35_Y78_YF] | 0.571 |
| CTTIHYNYMWN [TP53_Y234_C238W] | 1.18 |
| IMNLLYHVVGW [GBA_Y412_T408M] | 1.66 |
| GRIHSYRGHLW [VHL_Y112_R107G] | 1.99 |
| QMVGMYASFFM [AVPR2_Y124_S127F_YF] | 0.782 |
| FGPPQYNIQFS [ERBB2IP_Y977_YF] | 0.806 |
| SPPPAYTPMSG [ERBB4_Y1056] | 0.811 |
| FDAHIYEGCVI [PRKCD_Y64_R67C] | 0.758 |
| SGIYQYNIAKF [FOXL2_Y83_I84N] | 0.875 |
| TGQERYRAITS [RAB11B_Y73_A68T] | 0.695 |
| LVMFIYVIFGM [SCN1A_Y1684_A1685V] | 1.49 |

Results, then the sequence that gave them:

| SH2 binding enrichment | Sequence |
| --- | --- |
| 1.26 | LLILEYAKYGS [RET_Y806_V804L] |
| 0.636 | AAVDTVCRHNY [HLA-DRB1_Y107_Y107V] |
| 1.88 | SYCYRYRCAAW [SUMF1_Y344_R349W] |
| 0.55 | LRRREYQRQDF [PRKRIP1_Y90_YF] |
| 3.14 | PSQRHYVYYYS [PTEN_Y174_R173H] |
| 3.6 | LTMAPYSSVSV [FAM81A_Y24_L29V] |
| 0.592 | SDVCMYRKNTY [SYNE2_Y570_I574T] |
| 0.606 | VTAALYGCLFE [BTD_Y536_R538C_YF] |
| 0.491 | KLIMECLPFGS [JAK2_Y931_Y931C_YF] |
| 0.973 | PLFRKYWPNHI [GREB1L_Y1560_YF] |
| 0.668 | ANAFIYVVQLP [L1CAM_Y420_YF] |
| 0.673 | YGSGNYNVFGN [HNRNPA2B1_Y300_D302V] |
| 0.565 | TRSYDYTEGGD [FGF7_Y58_M59T] |

target: c-Src SH2; assay: as above

| Sequence | SH2 binding enrichment |
| --- | --- |
| KVNKIYFPDFI [LIG3_Y767_YF] | 0.692 |
| SSYSGYIMMPN [LEF1_Y114] | 1.99 |
| LYNQDYPIHCV [GATM_Y227_S231C] | 0.638 |
| IETGKYEILTE | 10.6 |
| RFLRGYRQDAY [HLA-A_Y137] | 0.628 |
| VNFDYYTVNLG [GFPT1_Y367_D366Y] | 0.741 |
| LTYHMYADPNF [SOS1_Y618] | 6.8 |
| SFSGEYGGGGG [ZG16_Y30_YF] | 0.471 |
| VIKDKYPKARY [APTX_Y209] | 1.25 |
| FKGKKYKPLDL [RPL35_Y78_YF] | 0.479 |
| CTTIHYNYMWN [TP53_Y234_C238W] | 0.874 |
| IMNLLYHVVGW [GBA_Y412_T408M] | 1.41 |
| GRIHSYRGHLW [VHL_Y112_R107G] | 1.61 |
| QMVGMYASFFM [AVPR2_Y124_S127F_YF] | 0.602 |
| FGPPQYNIQFS [ERBB2IP_Y977_YF] | 0.592 |
| SPPPAYTPMSG [ERBB4_Y1056] | 0.92 |
| FDAHIYEGCVI [PRKCD_Y64_R67C] | 0.5 |
| SGIYQYNIAKF [FOXL2_Y83_I84N] | 1.01 |
| TGQERYRAITS [RAB11B_Y73_A68T] | 0.485 |
| LVMFIYVIFGM [SCN1A_Y1684_A1685V] | 1.1 |

More lines, now with the values ahead:

| SH2 binding enrichment | Sequence |
| --- | --- |
| 1.31 | LLILEYAKYGS [RET_Y806_V804L] |
| 0.534 | AAVDTVCRHNY [HLA-DRB1_Y107_Y107V] |
| 1.67 | SYCYRYRCAAW [SUMF1_Y344_R349W] |
| 0.397 | LRRREYQRQDF [PRKRIP1_Y90_YF] |
| 2.03 | PSQRHYVYYYS [PTEN_Y174_R173H] |
| 3.26 | LTMAPYSSVSV [FAM81A_Y24_L29V] |
| 0.47 | SDVCMYRKNTY [SYNE2_Y570_I574T] |
| 0.52 | VTAALYGCLFE [BTD_Y536_R538C_YF] |
| 0.559 | KLIMECLPFGS [JAK2_Y931_Y931C_YF] |
| 0.461 | PLFRKYWPNHI [GREB1L_Y1560_YF] |
| 0.478 | ANAFIYVVQLP [L1CAM_Y420_YF] |
| 0.682 | YGSGNYNVFGN [HNRNPA2B1_Y300_D302V] |
| 1.65 | TRSYDYTEGGD [FGF7_Y58_M59T] |

— the supplement of paper PMC10065799, “High-throughput profiling of sequence recognition by tyrosine kinases and SH2 domains using bacterial peptide display” (eLife, 2023)
